Measurements from doi:10.1101/2021.08.20.457142.

B1: MKK6 D-site peptide / p38-alpha (MAPK14) L195A, full length (parent complex)
chain 1: SQSKGKKRNPGLKIPKEAFEQP
chain 2: MSQERPTFYRQELNKTVWEVPERYQNLSPVGSGAYGSVCAAFDTKTGHRVAVKKLSRPFQSIIHAKRTYRELRLLKHMKHENVIGLLDVFTPARSLEEFNDVYLVTHLMGADLNNIVKCQKLTDDHVQFLIYQILRGLKYIHSADIIHRDLKPSNLAVNEDCELKILDFGLARHTDDEMTGYVATRWYRAPEIMANWMHYNQTVDIWSVGCIMAELLTGRTLFPGTDHIDQLKLILRLVGTPGAELLKKISSESARNYIQSLAQMPKMNFANVFIGANPLAVDLLEKMLVLDSDKRITAAQALAHAYFAQYHDPDDEPVAEPYDQSFESRDFLIDEWKSLTYDEVISFVPPPLDQEEMES

Variants of: B1

Variant | screen value
chain 1 SQSKGKKRNPPLKIPKEAFEQP [chain 1 G11P] | -0.211 Z-score of the enrichment rate within one screen of 711 sequences
chain 1 SQSKGKKRNPQLKIPKEAFEQP [chain 1 G11Q] | 1.09 Z-score of the enrichment rate within one screen of 711 sequences
chain 1 SQSKGKKRNPHLKIPKEAFEQP [chain 1 G11H] | 1.37 Z-score of the enrichment rate within one screen of 711 sequences
chain 1 SQSKGKKRNPCLKIPKEAFEQP [chain 1 G11C] | 1.37 Z-score of the enrichment rate within one screen of 711 sequences
chain 1 SQSKGKKRNPLLKIPKEAFEQP [chain 1 G11L] | 1 Z-score of the enrichment rate within one screen of 711 sequences
chain 1 SQSKGKKRNPNLKIPKEAFEQP [chain 1 G11N] | 1.3 Z-score of the enrichment rate within one screen of 711 sequences
chain 1 SQSKAKKANPGLKIPKEAFEQP [chain 1 G5A, chain 1 R8A] | -0.162 Z-score of the enrichment rate within one screen of 711 sequences
chain 1 SQSKGHKRNPGLKIPKEAFEQP [chain 1 K6H] | 0.638 Z-score of the enrichment rate within one screen of 711 sequences
chain 1 SQSKGGKRNPGLKIPKEAFEQP [chain 1 K6G] | 0.521 Z-score of the enrichment rate within one screen of 711 sequences
chain 1 SQSKGSKRNPGLKIPKEAFEQP [chain 1 K6S] | 0.535 Z-score of the enrichment rate within one screen of 711 sequences
chain 1 SQSKGLKRNPGLKIPKEAFEQP [chain 1 K6L] | 1.2 Z-score of the enrichment rate within one screen of 711 sequences
chain 1 SQSKGTKRNPGLKIPKEAFEQP [chain 1 K6T] | 0.469 Z-score of the enrichment rate within one screen of 711 sequences
chain 1 SQSKGIKRNPGLKIPKEAFEQP [chain 1 K6I] | 0.848 Z-score of the enrichment rate within one screen of 711 sequences
chain 1 SQSKGCKRNPGLKIPKEAFEQP [chain 1 K6C] | 0.831 Z-score of the enrichment rate within one screen of 711 sequences
chain 1 SQSKGFKRNPGLKIPKEAFEQP [chain 1 K6F] | 1.13 Z-score of the enrichment rate within one screen of 711 sequences
chain 1 SQSKGKCRNPGLKIPKEAFEQP [chain 1 K7C] | 1.13 Z-score of the enrichment rate within one screen of 711 sequences
chain 1 SQSKGKTRNPGLKIPKEAFEQP [chain 1 K7T] | 0.476 Z-score of the enrichment rate within one screen of 711 sequences
chain 1 SQSKGKQRNPGLKIPKEAFEQP [chain 1 K7Q] | 0.531 Z-score of the enrichment rate within one screen of 711 sequences
chain 1 SQSKGKFRNPGLKIPKEAFEQP [chain 1 K7F] | 1.5 Z-score of the enrichment rate within one screen of 711 sequences
chain 1 SQSKGKARNPGLKIPKEAFEQP [chain 1 K7A] | 0.591 Z-score of the enrichment rate within one screen of 711 sequences
chain 1 SQSKGKWRNPGLKIPKEAFEQP [chain 1 K7W] | 1.32 Z-score of the enrichment rate within one screen of 711 sequences
chain 1 SQSKGKHRNPGLKIPKEAFEQP [chain 1 K7H] | 0.776 Z-score of the enrichment rate within one screen of 711 sequences
chain 1 SQSKGKMRNPGLKIPKEAFEQP [chain 1 K7M] | 1.7 Z-score of the enrichment rate within one screen of 711 sequences
chain 1 SQSKGKKRNAALKIPKEAFEQP [chain 1 P10A, chain 1 G11A] | 0.0844 Z-score of the enrichment rate within one screen of 711 sequences
chain 1 SQSKGKKTNPGLKIPKEAFEQP [chain 1 R8T] | 0.227 Z-score of the enrichment rate within one screen of 711 sequences

Variant | screen value
chain 1 SQSKGKKGNPGLKIPKEAFEQP [chain 1 R8G] | -0.084 Z-score of the enrichment rate within one screen of 711 sequences
chain 1 SQSKGKKCNPGLKIPKEAFEQP [chain 1 R8C] | -0.13 Z-score of the enrichment rate within one screen of 711 sequences
chain 1 SQSKGKKANPGLKIPKEAFEQP [chain 1 R8A] | -0.149 Z-score of the enrichment rate within one screen of 711 sequences
chain 1 SQSKGKKHNPGLKIPKEAFEQP [chain 1 R8H] | 0.072 Z-score of the enrichment rate within one screen of 711 sequences
chain 1 SQSKGKKMNPGLKIPKEAFEQP [chain 1 R8M] | -0.224 Z-score of the enrichment rate within one screen of 711 sequences
chain 1 SQSKGKKDNPGLKIPKEAFEQP [chain 1 R8D] | -1 Z-score of the enrichment rate within one screen of 711 sequences
chain 1 SQVKGKKRNPGLKIPKEAFEQP [chain 1 S3V] | 1.42 Z-score of the enrichment rate within one screen of 711 sequences
chain 1 SQSKGKKRNEGLKIPKEAFEQP [chain 1 P10E] | -0.594 Z-score of the enrichment rate within one screen of 711 sequences
chain 1 SQSKGKKRNGGLKIPKEAFEQP [chain 1 P10G] | 0.241 Z-score of the enrichment rate within one screen of 711 sequences
chain 1 SQSKGKKRNNGLKIPKEAFEQP [chain 1 P10N] | 0.284 Z-score of the enrichment rate within one screen of 711 sequences
chain 1 SQSKGKKRNPGLKVPKEAFEQP [chain 1 I14V] | -0.578 Z-score of the enrichment rate within one screen of 711 sequences
chain 1 SQSKGKKRNPGLKQPKEAFEQP [chain 1 I14Q] | -1.07 Z-score of the enrichment rate within one screen of 711 sequences
chain 1 SQSKGKKRNPGLKAPKEAFEQP [chain 1 I14A] | -0.785 Z-score of the enrichment rate within one screen of 711 sequences
chain 1 SQSKGKKRNPGLKEPKEAFEQP [chain 1 I14E] | -0.921 Z-score of the enrichment rate within one screen of 711 sequences
chain 1 SQSKGKKRNPGLKFPKEAFEQP [chain 1 I14F] | -0.0574 Z-score of the enrichment rate within one screen of 711 sequences
chain 1 SQSAGKKRNPGLKIPKEAFEQP [chain 1 K4A] | 0.525 Z-score of the enrichment rate within one screen of 711 sequences
chain 1 SQSSGKKRNPGLKIPKEAFEQP [chain 1 K4S] | 0.887 Z-score of the enrichment rate within one screen of 711 sequences
chain 1 SQSLGKKRNPGLKIPKEAFEQP [chain 1 K4L] | 1.3 Z-score of the enrichment rate within one screen of 711 sequences
chain 1 SQSRGKKRNPGLKIPKEAFEQP [chain 1 K4R] | 2.04 Z-score of the enrichment rate within one screen of 711 sequences
chain 1 SQSKGKKRNAGLKIPAEAFEQP [chain 1 P10A, chain 1 K16A] | -0.276 Z-score of the enrichment rate within one screen of 711 sequences
chain 1 SQSKGKKRNPGLKIAAEAFEQP [chain 1 P15A, chain 1 K16A] | 1.54 Z-score of the enrichment rate within one screen of 711 sequences
chain 1 SQSKGKKRNPGLKIANEAFEQP [chain 1 P15A, chain 1 K16N] | 0.0482 Z-score of the enrichment rate within one screen of 711 sequences
chain 1 SQAKGKKRNAGLKIPKEAFEQP [chain 1 S3A, chain 1 P10A] | 0.521 Z-score of the enrichment rate within one screen of 711 sequences
chain 1 SQSKGKKRAPGLKIAKEAFEQP [chain 1 N9A, chain 1 P15A] | 1.61 Z-score of the enrichment rate within one screen of 711 sequences
chain 1 SQSKGKKRNPALKAPKEAFEQP [chain 1 G11A, chain 1 I14A] | -0.938 Z-score of the enrichment rate within one screen of 711 sequences
